Source: the supplement of paper PMC9170038

Test system: MS2 coat protein
Assay: apparent KD of MS2 coat protein; higher = weaker reporter binding
Conditions: Eterna round: R107
Experimental: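 RNA-MaP round R107: designed RNA switches with theophylline, tryptophan, arginine or FMN aptamers are transcribed on-chip within common flanks. They are titrated with SNAP-549-labelled MS2 coat protein in RNA-MaP buffer (100 mM Tris pH 7.5, 80 mM KCl, 4 mM MgCl2), without ligand or with the indicated ligand. Median apparent KD per design.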

[1] = input ligand: theophylline 20 uM
[2] = input ligand: theophylline 2 mM
[3] = input ligand: tryptophan 2.4 mM

Sequence	apparent KD of MS2 coat protein (input ligand: arginine 13.2 mM) [nM]	apparent KD of MS2 coat protein (input ligand: none) [nM]	apparent KD of MS2 coat protein [1] [nM]	apparent KD of MS2 coat protein [2] [nM]	apparent KD of MS2 coat protein [3] [nM]
AACGUAUACAGAAGGAGCGUGAUUUAUAUUUCUUUAACAUAUACAUGAGGAUCACCCAUGUCACAGGUAGGUCGCUGUAUUCGUA [JR_ExcArginiB_Sub023]	33.6	31.1	40.1	32.6	30.8
AACGUCUUGUCGGCCGCCACUGUAUGGUGCGUGACAUGAAACAUGAGGAUCACCCAUGUAGCAUGCAGGACCGGGACAGUGCCAA [Beriaran]	7.49	–	13.9	11.6	–
AACUGGACCCGUGAUACCAGAGACAUGAGGAUCACCCAUGUACAUGAGGAUCACCCAUGUCUCCCUUGGCAGCACCGCAGGGAGC [Exclusion Theophylline B GF 13]	45.7	–	127	–	128
AAGGUGAUCCGUGAUACCAGCUCAACAUGAGGAUCACCCAUGUAAGCCUGGAAACAGGCGAGCCCUUGGCAGCACGGUAAUAAUA [(M)'-(Theo1)-(Ms2)-(Theo2)-(M'')]	12.6	–	14.5	–	12.6
AAUAACAUGAGGAUCACCCAUGUAAAAGAUACCAGAUGCAUGAUGAUCCCUUGGCAGCUUAAAACGCGAUUGAUUACAAUCGCGA [Mat - Same State Theophlline A - Mod of Eli - D12]	41	–	77.9	–	27.5
AAUAACGUGAGGAUCACCCACGUAAAAGAUACCAGAGUGAUGAUCCUCCCUUGGCAGCUUAACGCUGAUUGAUUACAAUCAGCGA	49.5	58.7	123	213	49.6
AAUAAGAUGAGGAUCACCCAUCUAAAAGAUACCAGAGUGAUGAUCCUCCCUUGGCAGCUUAACGCUGAUUGAUUACAAUCAGCGA	21.7	47.2	124	121	25.3
AAUAAGCAGCUGCAUCAUGGGUGAGCAGAUACCAGCUAGGAAACUAGCCCUUGGCAGCUGCAACAUGAGGAUCACCCAUGUAAUA [(T)'-(M)'-(T1)-(T2)-(M1)-(M2)_Design5]	47.1	42.7	108	46.3	34.7
AAUAAUAACAUGGGUGAAGUCGUACCAUAACGAGGACCGGUACGGCCGCCACUCGAACAUGAGGAUCACCCAUGUAGGUACGACA [M'-T'-T-MS2-T'' - Design 9]	37.6	86.6	110	85.2	43.7
AAUAAUAAGGCGGCCGCCACUACACAUGAGGAUCACCCAUGUCUCGCGGGCUUGCGUUGGGAAUGUAGGACCGGGCCAAUAAUAA [Exclusion - Tryptophan B (Freestyle 10)]	14.3	–	25.8	27.9	–
AAUACCGGUCCUCGAAGUGAUCCUCAUGAACGAGGACCGGUACGGCCGCCACUCGAUAACAUGAGGAUCACCCAUGUAAUAAUAA [|T'-M'-Trp-Ms2|_Design4]	72.8	63.9	93.1	115	70.6
AAUAUUUGCCACAUGAGGAUCACCCAUGUGCGAGGACCGGUACGGCCGCCACUCGGUCGGUGGUUAAUGAAGAUAAACAAUAAUG [XTryp A #11]	7.7	12	15.7	11.5	11.2
AAUCAUGAAAACAUGACAUGAGGAUCACUCCGAGGACCGGUACGGCCGCCACUCGCGAGGAGGCACAUGAGGAUCACCCAUGUUA [SS Tryp A #1]	31.6	–	114	148	–
AAUCGCCUGGGUCGCAUCCUUGCUCCGGAUACCAGUCAAUAGUUGGACCCUUGGCAGCCGUAGACAUGAGGAUCACCCAUGUAUA [theeternabot_exclusion_MS2_Theo_A_42]	30.2	–	85.5	–	55.9
AAUUAUCAGUCGGCCGCCACUGACACAUGAGGAUCACCCAUGUAACUUGGGUUAAAUUUAAUAAACAGGACCGGGACAAAGGCUA [JR_ExcTryptoB_Sub010]	94.4	–	189	192	–
AAUUUUAACGGAAGGAGCGUCACGUAAUUCAUACAUGAGGAUCACCCAUGUUAGUUGUAGAGACAGGUAGGUCGCCGUUAUUUGA [JR_AAArginiB_Sub025]	15.7	15.7	20.9	17.1	17
ACACAUGAGGAUCACCCAUGUGCAAUAGAUACCAGUGACGCGGUGCACCCUUGGCAGCUGUUGCUGAGUGAUGGUUCCCUCGGAA [Exclusion Theophylline A GF 6]	17.9	–	57.6	–	42.1
ACACAUGAGGAUCACCCAUGUGCGCUGGAAGGAGCGCAGAAUCAUGCAGGUAGGUCGCCAGUGCCUUUUGAUAAAGGGAAAAGAA [Cezaquce]	66.1	86.1	94.6	69.3	60.6
ACACAUGAGGAUCACCCAUGUUCAAUAGAUACCAGUGAUACGGUGCACCCUUGGCAGCUGUUGCUGAGUGAUGGUUCCCUCGGUA [#23 SameState-TheophyllineA]	28.1	–	53.9	–	41
ACAUAUUGGUGGUACCAACGAAGGCGGAAACGAGGACCGGUACGGCCGCCACUCGGCGACAUGAGGAUCACCCAUGUGGUUAAAA [Exclusion - Tryptophan A (Freestyle 2)]	–	149	153	851	972
ACAUGAGGAUCACCCAUGUAACCUAGGGAAGGAGCGGUGUAAGAGCCAGGUAGGUCGCCCACAUGUGGAUCACCCAUGGUGAGGG [#24 Same State - Arginine A]	22.7	29	44.4	39.2	26.6
ACAUGAGGAUCACCCAUGUAAUCCUCUGAAGGAGCGAGAAAUAACUCAGGUAGGUCGCAGUUCAAAACAUGAGGAUCACCCAUGU [Exclusion Arginine A GF 9]	28.9	43.3	52.6	46.2	51.1
ACAUGAGGAUCACCCAUGUACAUGAGGGAAGGAGCGGUACAUGUGCCAGGUAGGUCGCCCAUGAGCAUCAGCCAUGUACAUCAGC [l,ommullin]	42.1	82.7	102	75.3	75
ACAUGAGGAUCACCCAUGUACGAGUCGGAAGGAGCGGCAAUUAAGCCAGGUAGGUCGCCGGCAGAGAGUGUCAUUGUAAGUAUGA [Same State - Arginine A / A]	14.2	14.8	26.8	12.3	14
ACAUGAGGAUCACCCAUGUGCCGUCUUGAUACCAGACGCGAAGUAGUCCCUUGGCAGCAAAUACGUGAGGGUCGCGCAUGUGUAA [wzxmullin]	21.8	–	27.3	–	24.9
ACAUGAGGAUCACCCAUGUUCCUCGCCGAUACCAGUGAAGAAUUACGCCCUUGGCAGCGGAAAGAGUGUUUUGGAGAUGAGGUAC [6.aA]	80.5	–	112	–	100
ACAUUAGCCACGGCCGCCACUGCCUUAUGAUUAUAAGGAUUAAUGAACAUGAGGAUCACCCAUGUCAGGACCGGGUGCCUACCAU [SSTryp B #5]	20.1	–	32.5	26.5	–
ACCUCAUAGGCGGCCGCCACUGUAAUGACUACGUCAAACAUGAGGAUCACCCAUGUAGUCAAUCACAGGACCGGGUCAUGGGUAG [Tryp B SS s2]	27.7	–	45.6	41.4	–
ACCUGCGUUUGUUUCUUUCUGACGCAGGUUCGAGGACCGGUACGGCCGCCACUCGGACAUGAGGAUCACCCAUGUUUGACAUGGG [#02 Exclusion Tryptophan A]	229	–	238	281	–
